Data from paper PMC6247239 (Protein Science : A Publication of the Protein Society, 2018).
Values belong to the molecule of their own block, whether it stands above or below them.

T1: FtsA (Escherichia coli, UniProt P0ABH0 1-420)
T1 sequence: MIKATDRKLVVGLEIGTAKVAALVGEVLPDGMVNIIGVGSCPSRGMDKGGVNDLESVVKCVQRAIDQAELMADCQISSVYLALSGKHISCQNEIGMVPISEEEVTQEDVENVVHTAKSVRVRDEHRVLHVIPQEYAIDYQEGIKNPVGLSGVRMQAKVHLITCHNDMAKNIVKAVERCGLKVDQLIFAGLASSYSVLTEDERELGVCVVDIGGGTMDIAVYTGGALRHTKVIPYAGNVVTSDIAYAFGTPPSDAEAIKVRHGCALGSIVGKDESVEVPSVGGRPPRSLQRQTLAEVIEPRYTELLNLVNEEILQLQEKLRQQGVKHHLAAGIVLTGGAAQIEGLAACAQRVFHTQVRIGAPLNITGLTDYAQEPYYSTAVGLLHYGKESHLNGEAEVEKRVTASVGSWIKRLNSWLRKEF

B1: SNX16 PX-CC unit (domain or fragment)
chain: DRPSTPTILGYEVMEERAKFTVYKILVKKTPEESWVVFRRYTDFSRLNDKLKEMFPGFRLALPPKRWFKDNYNADFLEDRQLGLQAFLQNLVAHKDIANCLAVREFLCLDDPPGPFDSLEESRAFCETLEETNYRLQKELLEKQKEMESLKKLLSEKQLHIDTLENRIRTLSLEPEESLDVSETEGEQILKVESSALEVDQDVLDEESRADNKPCLSFSEPENAVSEIEVAEVAYDAEED
B2: human glutathione transferase M1a-1a (enzyme)
chain: MPMILGYWDIRGLAHAIRLLLEYTDSSYEEKKYTMGDAPDYDRSQWLNEKFKLGLDFPNLPYLIDGAHKITQSNAILCYIARKHNLCGETEEEKIRVDILENQTMDNHMQLGMICYNPEFEKLKPKYLEELPEKLKLYSEFLGKRPWFAGNKITFVDFLVYDVLDLHRIFEPKCLDAFPNLKDFISRFEGLEKISAYMKSSRFLPRPVFSKMAVWGNK
B3: MinC (natural protein)
chain: MSNTPIELKGSSFTLSVVHLHEAEPKVIHQALEDKIAQAPAFLKHAPVVLNVSALEDPVNWSAMHKAVSATGLRVIGVSGCKDAQLKAEIEKMGLPILTEGKEKAPRPAPTPQAPAQNTTPVTKTRLIDTPVRSGQRIYAPQCDLIVTSHVSAGAELIADGNIHVYGMMRGRALAGASGDRETQIFCTNLMAELVSIAGEYWLSDQIPAEFYGKAARLQLVENALTVQPLN
B4: FtsZ (natural protein)
chain: MFEPMELTNDAVIKVIGVGGGGGNAVEHMVRERIEGVEFFAVNTDAQALRKTAVGQTIQIGSGITKGLGAGANPEVGRNAADEDRDALRAALEGADMVFIAAGMGGGTGTGAAPVVAEVAKDLGILTVAVVTKPFNFEGKKRMAFAEQGITELSKHVDSLITIPNDKLLKVLGRGISLLDAFGAANDVLKGAVQGIAELITRPGLMNVDFADVRTVMSEMGYAMMGSGVASGEDRAEEAAEMAISSPLLEDIDLSGARGVLVNITAGFDLRLDEFETVGNTIRAFASDNATVVIGTSLDPDMNDELRVTVVATGIGMDKRPEITLVTNKQVQQPVMDRYQQHGMAPLTQEQKPVAKVVNDNAPQTAKEPDYLDIPAFLRKQAD

Assays:
[1] = target: procaspase-2 phosphorylated at S139 and S164 (human) (UniProt P42575); experiment: fluorescence polarisation + native gel or EMSA + SEC + AUC
procaspase-2 phosphorylated at S139 and S164 (human), sequence (P42575 whole entry, the tested form may be a part): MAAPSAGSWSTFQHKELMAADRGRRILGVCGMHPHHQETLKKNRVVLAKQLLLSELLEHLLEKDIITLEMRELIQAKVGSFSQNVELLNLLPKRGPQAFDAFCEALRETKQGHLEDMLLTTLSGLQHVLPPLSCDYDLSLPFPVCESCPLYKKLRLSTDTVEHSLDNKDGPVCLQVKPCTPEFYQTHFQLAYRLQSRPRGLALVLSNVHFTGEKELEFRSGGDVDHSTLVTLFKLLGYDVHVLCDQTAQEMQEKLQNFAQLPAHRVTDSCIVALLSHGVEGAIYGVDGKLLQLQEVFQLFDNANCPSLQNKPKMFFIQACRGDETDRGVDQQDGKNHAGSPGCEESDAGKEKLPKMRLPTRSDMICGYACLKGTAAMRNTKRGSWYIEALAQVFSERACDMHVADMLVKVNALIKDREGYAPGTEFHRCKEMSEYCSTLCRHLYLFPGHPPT

[2] = target: BECN1 coiled-coil domain (Homo sapiens) (UniProt Q14457); conditions: cited from earlier work
[3] = target: PBP2a (Staphylococcus aureus (MRSA))
[4] = target: Beclin-1 lacking the BARA domain (human)
[5] = target: Ras (UniProt P01112)
[6] = target: radical-generating subunit of the class I ribonucleotide reductase of Leeuwenhoekiella blandensis (Leeuwenhoekiella blandensis); experiment: multi-detection SEC, GEMMA, DLS
[7] = target: the molecule itself; experiment: crystal structure
[8] = target: the molecule itself; experiment: SEC + other: dynamic light scattering, HDX-MS, spectroscopy
[9] = target: B4; experiment: co-sedimentation
[10] = target: T1, FtsA; experiment: co-sedimentation

stoichiometry N [1]: 1
Molecule: 14-3-3 protein (from UniProt P63104 1-245) (natural protein)

Molecule: BECN1 coiled-coil domain (from UniProt Q14457)
Kd [2]: 48 µM

Molecule: BLIP-II N50A:Y113H (natural protein)
Kd [3]: 0.05 µM

fold weaker homodimer KD than the full-length protein [4]: 3.5 fold
Molecule: Beclin-1 lacking the BARA domain (domain or fragment)

percent of the Ras population forming dimers [5]: < 10%
Molecule: Ras (from UniProt P01112 1-189) (natural protein)

stoichiometry N [6]: 4
Molecule: radical-generating subunit of the class I ribonucleotide reductase of Leeuwenhoekiella blandensis (enzyme)

Molecule: B1
stoichiometry N [7]: 2

Molecule: B2
stoichiometry N [8]: 2

Molecule: B3
binding result [9]: binds

Molecule: B4
binding result [10]: binds
